The source of these data is publication PMC2898018.

The assay deals with His-tagged WRN (E84A) (human) (UniProt Q14191).
Sequence of UniProt Q14191 (Q14191 whole entry E84A): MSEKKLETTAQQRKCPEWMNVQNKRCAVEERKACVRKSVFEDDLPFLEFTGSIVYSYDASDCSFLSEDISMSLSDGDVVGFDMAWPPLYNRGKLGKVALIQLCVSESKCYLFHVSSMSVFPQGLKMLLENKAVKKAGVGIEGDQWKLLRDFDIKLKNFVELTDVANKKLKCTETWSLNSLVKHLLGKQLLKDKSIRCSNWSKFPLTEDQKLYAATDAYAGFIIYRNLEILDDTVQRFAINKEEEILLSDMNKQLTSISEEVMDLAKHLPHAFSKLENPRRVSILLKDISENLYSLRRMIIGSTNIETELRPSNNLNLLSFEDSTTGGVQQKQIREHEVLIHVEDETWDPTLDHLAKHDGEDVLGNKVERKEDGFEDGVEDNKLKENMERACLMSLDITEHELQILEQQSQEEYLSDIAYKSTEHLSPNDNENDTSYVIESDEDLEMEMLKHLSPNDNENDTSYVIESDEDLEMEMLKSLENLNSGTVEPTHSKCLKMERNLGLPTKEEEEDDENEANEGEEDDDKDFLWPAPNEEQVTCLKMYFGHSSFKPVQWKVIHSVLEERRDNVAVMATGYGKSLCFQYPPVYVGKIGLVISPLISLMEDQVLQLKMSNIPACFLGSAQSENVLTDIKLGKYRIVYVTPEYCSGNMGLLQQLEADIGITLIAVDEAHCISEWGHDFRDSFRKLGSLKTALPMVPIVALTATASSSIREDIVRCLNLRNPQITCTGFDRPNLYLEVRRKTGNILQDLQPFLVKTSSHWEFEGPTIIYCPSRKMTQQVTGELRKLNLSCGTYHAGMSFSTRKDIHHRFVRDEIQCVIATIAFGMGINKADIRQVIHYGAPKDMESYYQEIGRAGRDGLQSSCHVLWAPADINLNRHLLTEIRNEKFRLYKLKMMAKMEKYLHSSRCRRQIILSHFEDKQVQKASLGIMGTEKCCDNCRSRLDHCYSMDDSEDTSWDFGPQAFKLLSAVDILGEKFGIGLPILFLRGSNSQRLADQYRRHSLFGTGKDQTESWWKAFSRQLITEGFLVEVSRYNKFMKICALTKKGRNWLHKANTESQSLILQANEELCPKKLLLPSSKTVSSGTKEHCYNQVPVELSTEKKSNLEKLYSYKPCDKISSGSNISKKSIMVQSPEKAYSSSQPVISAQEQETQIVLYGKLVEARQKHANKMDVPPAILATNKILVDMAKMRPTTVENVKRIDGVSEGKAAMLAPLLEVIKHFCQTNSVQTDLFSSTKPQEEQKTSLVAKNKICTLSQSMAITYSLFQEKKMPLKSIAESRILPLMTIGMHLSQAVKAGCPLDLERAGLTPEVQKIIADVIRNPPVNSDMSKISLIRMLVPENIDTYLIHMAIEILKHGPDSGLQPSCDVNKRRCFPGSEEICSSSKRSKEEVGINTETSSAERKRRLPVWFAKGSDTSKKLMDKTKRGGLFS

For “DNA-PKcs, the catalytic subunit of DNA-PK (from UniProt P78527 1-4128) (enzyme)”, the unwinding of the telomeric D-loop substrate by WRN (E84A) (3.3 nM) preincubated with DNA-PKcs (16.7 nM), native gel; 3.3% unwound in the absence of DNA-PKcs was 66%.
